From patent US20020127673A1 (REGENTS OF THE UNIVERSITY OF MICHIGAN, published 2002) come the findings set out here.

Series [1] addresses T1, HA-tagged wild-type Nod2 (human, UniProt Q9HC29 1-1040).
T1 construct: Expressed by transfection in HEK293T cells and tested in cell lysates; also called wt Nod2; pcDNA3-Nod2-HA; not shown: HA tag
As to the kind of experiment: co-immunoprecipitation from co-transfected HEK293T cells. From the text: The CARD motif functions as an effector domain that mediates specific homophilic interaction with downstream CARD-containing molecules (Hofmann et al., Trends Biochem. Sci. 22: 155-156 [1997]).

Series [2] deals with the molecule itself. Description: not described ('our observations').

B1: Bcl-10 (other, UniProt O95999 1-233, looked up)
chain: MEPTAPSLTEEDLTEVKKDALENLRVYLCEKIIAERHFDHLRAKKILSREDTEEISCRTSSRKRAGKLLDYLQENPKGLDTLVESIRREKTQNFLIQKITDEVLKLRNIKLEHLKGLKCSSCEPFPDGATNNLSRSNSDESNFSEKLRASTVMYHPEGESSTTPFFSTNSSLNLPVLEVGRTENTIFSSTTLPRPGDPGAPPLPPDLQLEEEGTCANSSEMFLPLRSRTVSRQ
notes: Construct and tag not described
Take B1: the binding result in series [1] is “no binding”.

B2: Nod2 lacking the LRRs (Nod2 1-744) (other)
chain: MGEEGGSASHDEEERASVLLGHSPGCEMCSQEAFQAQRSQLVELLVSGSLEGFESVLDWLLSWEVLSWEDYEGFHLLGQPLSHLARRLLDTVWNKGTWACQKLIAAAQEAQADSQSPKLHGCWDPHSLHPARDLQSHRPAIVRRLHSHVENMLDLAWERGFVSQYECDEIRLPIFTPSQRARRLLDLATVKANGLAAFLLQHVQELPVPLALPLEAATCKKYMAKLRTTVSAQSRFLSTYDGAETLCLEDIYTENVLEVWADVGMAGPPQKSPATLGLEELFSTPGHLNDDADTVLVVGEAGSGKSTLLQRLHLLWAAGQDFQEFLFVFPFSCRQLQCMAKPLSVRTLLFEHCCWPDVGQEDIFQLLLDHPDRVLLTFDGFDEFKFRFTDRERHCSPTDPTSVQTLLFNLLQGNLLKNARKVVTSRPAAVSAFLRKYIRTEFNLKGFSEQGIELYLRKRHHEPGVADRLIRLLQETSALHGLCHLPVFSWMVSKCHQELLLQEGGSPKTTTDMYLLILQHFLLHATPPDSASQGLGPSLLRGRLPTLLHLGRLALWGLGMCCYVFSAQQLQAAQVSPDDISLGFLVRAKGVVPGSTAPLEFLHITFQCFFAAFYLALSADVPPALLRHLFNCGRPGNSPMARLLPTMCIQASEGKDSSVAALLQKAEPHNLQITAAFLAGLLSREHWGLLAECQTSEKALLRHQACARWCLARSLRKHFHSIPPAAPGEAKSVHAMPGFIWLIR
notes: also called Nod2ΔLRR
Regarding B2, the binding result in series [2] is reported as “binds”.

B3: procaspase-9 (enzyme, UniProt P55211 1-416, looked up)
chain: MDEADRRLLRRCRLRLVEELQVDQLWDALLSRELFRPHMIEDIQRAGSGSRRDQARQLIIDLETRGSQALPLFISCLEDTGQDMLASFLRTNRQAAKLSKPTLENLTPVVLRPEIRKPEVLRPETPRPVDIGSGGFGDVGALESLRGNADLAYILSMEPCGHCLIINNVNFCRESGLRTRTGSNIDCEKLRRRFSSLHFMVEVKGDLTAKKMVLALLELAQQDHGALDCCVVVILSHGCQASHLQFPGAVYGTDGCPVSVEKIVNIFNGTSCPSLGGKPKLFFIQACGGEQKDHGFEVASTSPEDESPGSNPEPDATPFQEGLRTFDQLDAISSLPTPSDIFVSYSTFPGFVSWRDPKSGSWYVETLDDIFEQWAHSEDLQSLLLRVANAVSVKGIYKQMPGCFNFLRKKLFFKTS
notes: as for B1
Take B3: the binding result in series [1] is recorded as “no binding”.

B4: caspase-1 (enzyme, UniProt P29466 1-404, looked up)
chain: MADKVLKEKRKLFIRSMGEGTINGLLDELLQTRVLNKEEMEKVKRENATVMDKTRALIDSVIPKGAQACQICITYICEEDSYLAGTLGLSADQTSGNYLNMQDSQGVLSSFPAPQAVQDNPAMPTSSGSEGNVKLCSLEEAQRIWKQKSAEIYPIMDKSSRTRLALIICNEEFDSIPRRTGAEVDITGMTMLLQNLGYSVDVKKNLTASDMTTELEAFAHRPEHKTSDSTFLVFMSHGIREGICGKKHSEQVPDILQLNAIFNMLNTKNCPSLKDKPKVIIIQACRGDSPGVVWFKDSVGVSGNLSLPTTEEFEDDAIKKAHIEKDFIAFCSSTPDNVSWRHPTMGSVFIGRLIEHMQEYACSCDVEEIFRKVRFSFEQPDGRAQMPTTERVTLTRCFYLFPGH
notes: as for B1
As for B4, in series [1], the binding result is reported as “no binding”.

B5: caspase-4 (enzyme, UniProt P49662 1-377, looked up)
chain: MAEGNHRKKPLKVLESLGKDFLTGVLDNLVEQNVLNWKEEEKKKYYDAKTEDKVRVMADSMQEKQRMAGQMLLQTFFNIDQISPNKKAHPNMEAGPPESGESTDALKLCPHEEFLRLCKERAEEIYPIKERNNRTRLALIICNTEFDHLPPRNGADFDITGMKELLEGLDYSVDVEENLTARDMESALRAFATRPEHKSSDSTFLVLMSHGILEGICGTVHDEKKPDVLLYDTIFQIFNNRNCLSLKDKPKVIIVQACRGANRGELWVRDSPASLEVASSQSSENLEEDAVYKTHVEKDFIAFCSSTPHNVSWRDSTMGSIFITQLITCFQKYSWCCHLEEVFRKVQQSFETPRAKAQMPTIERLSMTRYFYLFPGN
notes: as for B1
For B5, in series [1], the binding result is recorded as “no binding”.
